According to publication PMC3481545:

Tests used:
Experiment in all cases: SPR
Activin = Activin (UniProt P08476)
BMP-7 = BMP-7 (UniProt P18075)
GDF-5 = GDF-5 (UniProt P43026)
Chain of GDF-5 (P43026 382-501): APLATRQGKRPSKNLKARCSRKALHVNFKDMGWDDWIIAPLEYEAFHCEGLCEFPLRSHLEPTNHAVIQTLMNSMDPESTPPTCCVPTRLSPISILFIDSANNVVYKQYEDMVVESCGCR

Chain of BMP-7 (P18075 293-431): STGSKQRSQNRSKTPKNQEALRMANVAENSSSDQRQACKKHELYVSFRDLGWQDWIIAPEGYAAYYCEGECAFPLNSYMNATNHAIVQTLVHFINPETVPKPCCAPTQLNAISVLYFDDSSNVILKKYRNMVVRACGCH

Q: How did the Kd (Activin) turn out when “AΔA: ActR-IIB ECD with its A-loop deleted (domain or fragment)” was run?
A: Its Kd is > 1300 µM.

Q: What about the Kd (BMP-7) of the same substance?
A: Its Kd is 30 µM.

Q: What about the Kd (GDF-5) of the same substance?
A: The Kd was > 1300 µM.

Q: Which results are given for “BΔB: BMPR-II ECD with its A-loop deleted (from UniProt Q13873 26-150) (domain or fragment)”?
A: Kd (Activin): 94 µM; Kd (BMP-7): 27 µM; Kd (GDF-5): > 1300 µM

Q: For “human recombinant ActR-IIB ECD, wild type (from UniProt Q13705 19-134) (domain or fragment)”, which Kd (BMP-7) is on record?
A: Its Kd is 16 µM.

Q: What about the Kd (GDF-5) of the same substance?
A: The Kd was > 1300 µM.
